{"source": "patent US20190367612A1", "about": "(Daiichi Sankyo, published 2019)", "binders": {"B1": {"name": "humanized anti-GPRC5D antibody h2B1_H1/L2 (antibody, human IgG1, kappa, V domains shown)", "VH": "QVQLVESGGGLVKPSQTLSLTCTFSGFSLNTYDMGVGWIRQPPGKGLEWIGNIWWDDDKYYNPSLKSRVTISVDTSKNQASLKLSSVTAADTAVYYCARIETVRVSRKGFAHWGQGTLVTVSS", "VL": "DTVMTQSPDSLAVSLGERATINCKASQSVGINVDWYQQKPGQPPKLLIYGASNRHTGVPDRFSGSGFGTDFTLTISSLQAEDVAVYYCLQHGSIPPTFGQGTKVEIKR", "notes": "Human IgG1 / kappa"}, "B2": {"name": "human antibody C3048 scFv (scFv)", "scFv": "QVQLVQSGAEVKKPGSSVKVSCKASGGTFSRYAISWVRQAPGQGLEWMGGIIPIFGTANYAQKFQGRVTITADQSTRTAYMDLGRLRSEDTAVYYCALEGFRDSLKRNPFDIWGQGTMVTVSSGGGGSGGGGSGGGGSQSVVTQPPSVSAAPGQKVTISCSGGTTNIGSNYVSWYQQLPGTAPKFLMYENNKRPSGIPDRFSGSKSGTSATLAITGLQTGDEATYYCSTWDSSLNTGLFGGGTKLTVL", "notes": "also called C3048 antibody scFv; not shown: FLAG and His tags at the carboxyl terminus"}, "B3": {"name": "human chimeric 2B1 (antibody, human IgG1, V domains shown)", "VH": "QVTLKESGPGILQPSQTLSLTCTFSGFSLNTYDMGVGWIRQPSGKGLEWLANIWWDDDKYYNPSLRNRLTISKDTSNNQAFLKITNVDTADTATYYCARIETVRVSRKGFAHWGQGTLVTVSS", "VL": "ETVMTQSPTSMSTSIGERVTLNCKASQSVGINVDWYQQTPGQSPKLLIYGASNRHTGVPDRFTGSGFGRDFTLTISNVEAEDLAVYYCLQHGSIPPTFGGGTKLELKR", "notes": "Human IgG1 / kappa constant regions"}, "B4": {"name": "human GPRC5D amino-terminal peptide MYKDCIESTGDYFLLCDAEGPWGIILE-K(Biotin)-NH2, having an intramolecular disulfide bond (peptide)", "peptide": "MYKDCIESTGDYFLLCDAEGPWGIILEK(Biotin)-NH2", "modifications": "disulfide 5-16 (inferred)", "notes": "Peptide Institute synthetic peptide; also called amino-terminal peptide of biotinylated human GPRC5D (disulfide bond present)"}, "B5": {"name": "human GPRC5D amino-terminal peptide …(Biotin)-NH2, lacking an intramolecular disulfide bond (peptide)", "peptide": "MYKDCIESTGDYFLLCDAEGPWGIILE(Biotin)-NH2", "modifications": "cysteine pairing not given here", "notes": "Sigma-Aldrich synthetic peptide; also called amino-terminal peptide of human GPRC5D (disulfide bond absent)"}}, "key": {"human GPRC5D [1]": {"target": "T1, human GPRC5D (human, UniProt Q9NZD1 1-345)", "T1 construct": "whole, on cells; also called hGPRC5D; G-protein coupled receptor family C group 5 member D", "assay": "flow cytometry on KHM-1B cells (human GPRC5D), culture supernatant, PE anti-human IgG Fc, rMFI over human IgG isotype control", "method": "Human multiple myeloma cell line KHM-1B cells expressing GPRC5D were adjusted to a concentration of 2×10⁶ cells/mL with PBS containing 5% FBS, inoculated in an amount of 100 μL/well to a 96-well U-bottomed microplate, and centrifuged to remove a supernatant. The culture supernatant of each humanized anti-GPRC5D antibody obtained in Example 8)-3-1 or Human IgG isotype control antibody (Calbiochem/Merck Millipore Corp.) adjusted to 14 ng/mL to 30 μg/mL was added thereto in an amount of 100 μL/well, and the plate was left standing at 4° C. for 1 hour. The cells were washed twice with PBS containing 5% FBS. Then, R-Phycoerythrin AffiniPure F(ab′)2 Fragment Goat Anti-Human IgG, Fcγ Fragment Specific (Jackson ImmunoResearch Laboratories, Inc.) diluted 100-fold with PBS containing 5% FBS was added thereto in an amount of 100 μL/well, and the plate was left standing at 4° C. for 1 hour. The cells were washed twice with PBS containing 5% FBS and then resuspended in PBS containing 5% FBS, followed by detection using a flow cytometer (FACSCanto™ II; Becton, Dickinson and Company). The data was analyzed using Flowjo (Tree Star, Inc.). The PE fluorescence intensity of the cell fraction was plotted to a histogram, and the mean fluorescence intensity (MFI) was calculated. The MFI value of the control antibody was subtracted from the MFI value of the GPRC5D antibody to calculate a relative value of MFI (rMFI)."}, "cynomolgus monkey GPRC5D": {"target": "T2, cynomolgus monkey GPRC5D (cynomolgus monkey)", "T2 construct": "whole, on cells; Stably expressed on KMS-11 cells (KMS-11_cGPRC5D); also called cGPRC5D", "assay": "flow cytometry on KMS-11_cGPRC5D cells (cynomolgus monkey GPRC5D), PE anti-human IgG Fc detection, rMFI = MFI minus isotype control [label at the foot of D00092]"}, "human GPRC5D [2]": {"target": "T1, human GPRC5D", "assay": "flow cytometry on KMS-34 cells (endogenous human GPRC5D), anti-FLAG antibody and Alexa 488 anti-mouse IgG detection", "method": "The KMS-34 cells were recovered by centrifugation, washed twice with a FACS buffer (PBS containing 0.5% BSA and 2 mM EDTA, pH 7.4), and then suspended in the same solution as above. The C2037, C3048, C3015 or C3022 scFv was added to the obtained cell suspension, and the mixture was left standing at 4° C. for 2 hours. After washing twice with a FACS buffer, the cells were suspended by the addition of an anti-FLAG antibody (Sigma-Aldrich Corp.), and the mixture was further left standing at 4° C. for 1 hour. After washing twice with a FACS buffer, the cells were suspended by the addition of Alexa 488-labeled anti-mouse IgG antibody (Jackson ImmunoResearch Laboratories, Inc.), and the mixture was further left standing at 4° C. for 1 hour. After washing twice with a FACS buffer, the cells were fixed in 1% PFA (prepared from a 32% paraformaldehyde solution (Electron Microscopy Sciences)), followed by detection using a flow cytometer (FACSCanto™ II; Becton, Dickinson and Company). The data was analyzed using Flowjo (Tree Star, Inc.)."}, "[3]": {"target": "B4", "assay": "SPR (Biacore T200), kinetic analysis: biotinylated amino-terminal peptide of human GPRC5D on Sensor Chip CAP, scFv as analyte", "method": "The binding activity of the anti-GPRC5D antibodies against the amino-terminal peptide of human GPRC5D was tested by SPR using Biacore T200. The amino-terminal peptide of biotinylated human GPRC5D diluted to 2 nM with HBS-EP+ (manufactured by GE Healthcare Bio-Sciences Corp.) was immobilized on Sensor Chip CAP (manufactured by GE Healthcare Bio-Sciences Corp.) by contact at a rate of 10 μL/min for 180 seconds. Then, Kd was calculated by kinetic analysis using a plurality of concentrations of each scFv diluted with HBS-EP+ as analytes."}, "[4]": {"target": "B4", "assay": "ELISA, chemiluminescence: biotinylated amino-terminal peptide of human GPRC5D on NeutrAvidin, scFv detected with HRP anti-FLAG antibody", "method": "(§1) NeutrAvidin diluted to 1 μg/mL with PBS was added in an amount of 50 μL/well to 96-well Maxi-sorp plate (Black, Nunc/Thermo Fisher Scientific Inc.), and the plate was left standing overnight at 4° C. for immobilization. After washing three times with an ELISA buffer, the amino-terminal peptide of the biotinylated human or cynomolgus monkey GPRC5D (used in Example 10)-1) diluted to 1 μg/mL with PBS was added thereto, and the plate was shaken at room temperature for 1 hour. After washing three times with an ELISA buffer, the plate was blocked with Blocker Casein and washed three times with an ELISA buffer. Then, the C2037, C3048, C3015, or C3022 scFv was added to the plate and reacted at room temperature for 2 hours. After washing three times with an ELISA buffer, a horseradish peroxidase (HRP)-labeled anti-FLAG antibody diluted 5000-fold with an ELISA buffer was added thereto in an amount of 50 μL/well and reacted at room temperature for 1 hour. After washing five times with an ELISA buffer, SuperSignal Pico ELISA Chemiluminescent substrate was added. After 10 minutes, the chemiluminescence was measured using a plate reader."}, "[5]": {"target": "T3, amino-terminal peptide of cynomolgus monkey GPRC5D …(Biotin)-NH2 (cynomolgus monkey, C-terminal lysine carrying biotin, C-terminal amide)", "T3 construct": "also called amino-terminal peptide of biotinylated cynomolgus monkey GPRC5D", "T3 peptide": "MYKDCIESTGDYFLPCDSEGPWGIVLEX", "assay": "ELISA, chemiluminescence: biotinylated amino-terminal peptide of cynomolgus monkey GPRC5D on NeutrAvidin, scFv detected with HRP anti-FLAG antibody", "method": "as §1"}, "mouse GPRC5D": {"target": "T4, mouse GPRC5D (mouse, UniProt Q9JIL6 1-344)", "T4 construct": "whole, on cells", "T4 sequence (looked up)": "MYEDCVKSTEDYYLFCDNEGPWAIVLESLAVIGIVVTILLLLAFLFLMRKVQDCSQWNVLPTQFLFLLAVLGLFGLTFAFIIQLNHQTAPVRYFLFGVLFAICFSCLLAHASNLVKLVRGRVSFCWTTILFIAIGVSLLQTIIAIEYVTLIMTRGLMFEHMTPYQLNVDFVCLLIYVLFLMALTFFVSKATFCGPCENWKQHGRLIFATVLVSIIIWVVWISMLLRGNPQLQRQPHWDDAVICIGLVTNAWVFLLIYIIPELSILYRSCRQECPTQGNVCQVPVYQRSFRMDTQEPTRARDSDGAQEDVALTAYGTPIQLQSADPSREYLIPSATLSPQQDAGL", "assay": "flow cytometry, in the same way as in Example 5)-2"}, "human GPRC5D [6]": {"target": "T1, human GPRC5D", "assay": "flow cytometry on KHM-1B cells (human GPRC5D), PE anti-human IgG Fc, rMFI over human IgG isotype control"}, "[7]": {"target": "T5, rat anti-GPRC5D antibody 2A4", "T5 construct": "Rat IgG2b, kappa chain", "T5 sequence (VH, as listed by the source, chain 1 of 2)": "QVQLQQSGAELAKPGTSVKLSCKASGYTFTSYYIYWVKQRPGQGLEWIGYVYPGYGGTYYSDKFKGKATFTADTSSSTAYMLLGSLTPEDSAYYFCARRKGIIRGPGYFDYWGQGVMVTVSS", "T5 sequence (VL, as listed by the source, chain 2 of 2)": "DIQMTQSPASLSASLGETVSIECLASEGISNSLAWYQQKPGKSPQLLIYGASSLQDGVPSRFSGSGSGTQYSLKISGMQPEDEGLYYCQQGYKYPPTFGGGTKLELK", "assay": "flow cytometry competition on KMS-34 cells: the peptide with the intramolecular disulfide bond is added together with a fixed amount of 2A4; readout: binding of 2A4 to human GPRC5D on the cells", "method": "(§2) Human multiple myeloma cell line KMS-34 cells expressing GPRC5D were adjusted to a concentration of 2×10⁶ cells/mL with PBS containing 5% FBS, inoculated in an amount of 100 μL/well to a 96-well U-bottomed microplate, and centrifuged to remove a supernatant. Each rat anti-GPRC5D antibody (2A4, 2B1, and 7B4) adjusted to 7.5 μg/mL in Example 1)-7, or Rat IgG2b isotype control antibody (Medical & Biological Laboratories Co., Ltd. (MBL)) was added thereto in an amount of 100 μL/well. The two types of peptides used in Example 2)-2-1 were each adjusted to 17 ng/mL to 34 μg/mL with PBS and added in an amount of 100 μL/well to the wells containing the antibody dilution, and the plate was left standing at 4° C. for 1 hour. The cells were washed twice with PBS containing 5% FBS. Then, PE Goat Anti-Rat Ab (Becton, Dickinson and Company) diluted 100-fold with PBS containing 5% FBS was added thereto in an amount of 100 μL/well, and the plate was left standing at 4° C. for 1 hour. The cells were washed twice with PBS containing 5% FBS and then resuspended in PBS containing 5% FBS, followed by detection using a flow cytometer (FACSCanto™ II; Becton, Dickinson and Company). The data was analyzed using Flowjo (Tree Star, Inc.). The PE fluorescence intensity of the cell fraction was plotted to a histogram, and the mean fluorescence intensity (MFI) was calculated. […]"}, "[8]": {"target": "T6, rat anti-GPRC5D antibody 2B1", "T6 construct": "Rat IgG2b, kappa chain", "assay": "flow cytometry competition on KMS-34 cells: the peptide with the intramolecular disulfide bond is added together with a fixed amount of 2B1; blocked: binding of 2B1 to human GPRC5D on the cells", "method": "as §2"}, "[9]": {"target": "T7, rat anti-GPRC5D antibody 7B4", "T7 construct": "Rat IgG2b, kappa chain", "T7 sequence (VH, as listed by the source, chain 1 of 2)": "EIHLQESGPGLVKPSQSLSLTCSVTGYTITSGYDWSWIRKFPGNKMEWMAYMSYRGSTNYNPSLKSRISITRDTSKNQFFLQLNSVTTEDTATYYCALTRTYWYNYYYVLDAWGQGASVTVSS", "T7 sequence (VL, as listed by the source, chain 2 of 2)": "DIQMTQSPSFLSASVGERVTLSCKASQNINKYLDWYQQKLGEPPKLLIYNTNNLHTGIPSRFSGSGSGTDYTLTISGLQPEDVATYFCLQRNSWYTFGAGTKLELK", "assay": "flow cytometry competition on KMS-34 cells: the peptide with the intramolecular disulfide bond is added together with a fixed amount of 7B4; readout: binding of 7B4 to human GPRC5D on the cells", "method": "as §2"}, "[10]": {"target": "T5, rat anti-GPRC5D antibody 2A4", "assay": "flow cytometry competition on KMS-34 cells: the peptide without the intramolecular disulfide bond is added together with a fixed amount of 2A4; readout: binding of 2A4 to human GPRC5D on the cells", "method": "as §2"}, "[11]": {"target": "T6, rat anti-GPRC5D antibody 2B1", "assay": "flow cytometry competition on KMS-34 cells: the peptide without the intramolecular disulfide bond is added together with a fixed amount of 2B1; blocked: binding of 2B1 to human GPRC5D on the cells", "method": "as §2"}, "[12]": {"target": "T7, rat anti-GPRC5D antibody 7B4", "assay": "flow cytometry competition on KMS-34 cells: the peptide without the intramolecular disulfide bond is added together with a fixed amount of 7B4; readout: binding of 7B4 to human GPRC5D on the cells", "method": "as §2"}}, "note": "Bridge positions count the residues as written; N and C are the ends. Ends that are not written are not given here. * marks the point of attachment. Biotin = O=C1N[C@H]2[C@H](CS[C@H]2CCCCC(=O)*)N1"}
{"binder": "B1", "values": [{"measurement": "binding result", "setting": "human GPRC5D [1]", "value": "binds"}, {"measurement": "EC50 (read off the curve)", "setting": "cynomolgus monkey GPRC5D", "value": "~4", "unit": "nM"}]}
{"binder": "B2", "values": [{"measurement": "EC50 (read off the curve)", "setting": "human GPRC5D [2]", "value": "~10", "unit": "nM"}, {"measurement": "Kd", "setting": "[3]", "value": 0.36, "unit": "nM"}, {"measurement": "EC50 (read off the curve)", "setting": "[4]", "value": "~3", "unit": "nM"}, {"measurement": "binding result", "setting": "[5]", "value": "binds"}]}
{"binder": "B3", "values": [{"measurement": "binding result", "setting": "mouse GPRC5D", "value": "no binding"}, {"measurement": "EC50 (read off the curve)", "setting": "human GPRC5D [6]", "value": "~10", "unit": "nM"}]}
{"binder": "B4", "values": [{"measurement": "binding result", "setting": "[7]", "value": "no binding (tested: 5000 nM)"}, {"measurement": "IC50 (read off the curve)", "setting": "[8]", "value": "~50", "unit": "nM"}, {"measurement": "binding result", "setting": "[9]", "value": "no binding (tested: 5000 nM)"}]}
{"binder": "B5", "values": [{"measurement": "binding result", "setting": "[10]", "value": "no binding (tested: 5000 nM)"}, {"measurement": "IC50 (read off the curve)", "setting": "[11]", "value": "~50", "unit": "nM"}, {"measurement": "binding result", "setting": "[12]", "value": "no binding (tested: 5000 nM)"}]}
